Here are results for 41 sequences from the nanobody polyreactivity screen of Harvey et al. (2022).

This data set can be described thus: yeast display, Sf9 membrane polyspecificity reagent, FACS + sequencing; frameworks hold sequencing errors. An outline of the steps: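 A synthetic nanobody library was expressed on Saccharomyces cerevisiae BJ5465 by galactose induction for 36–48 hours. The library was stained for 1 hour at 4 °C with 10% biotinylated, detergent-solubilized Sf9 membrane reagent and enriched with streptavidin microbeads before FACS. Low and high (top ~1%) gates were set on anti-HA fluorescence for expression and streptavidin fluorescence for reagent binding, and each polyreactivity label reflects the gate of origin.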
As for “QVQLVESGGGLVQAGGSLRLSCDASGNIFSDYTMGWYRQAPGKERELVAAISGDGGTTYYADSVKGRFTISRDNAKNTVYLQMNSLNPEDTAVYYCAADGYYDAYDQFFIVYYEYDYWGQGTQVTVSS”, the “polyreactivity (PSR sort gate)” value was “low polyreactivity”.

Consider “QVQLVESGGGLVQAGGSLRLSCDASGNIFSWNTMGWYRKAPGKEWELVAAITFRVTRTFYADSVKGRFTISRDNAKNTVYFLMNSLNPEDTAVYYCAARYYYSYSLGYDYWGQGTQVTVSS”, for which the “polyreactivity (PSR sort gate)” value is on record as “high polyreactivity”.

For “QVQLVESGGGLVQAGGSLRLSCDASGNTFLYNTMGWYRQAPGKEREFVAAISGSGGSTYYADSVKGRFTISRDNAKYTVYLQMNSLKPEDTAVYYCNALWRRRKYDYWGEGTQVTVSS”, the “polyreactivity (PSR sort gate)” value is “high polyreactivity”.

As to “QVQLVESGGGLVQAGGSLRLSCDASGNTFRGYAMGWYRQAPGKERELVAAITSGGRTYYADSVKGRFTISRDNAKNTVYLQMNSLKPEDTAVYYCNAVLGRYVTYNYWGQGTQVTVSS”, the “polyreactivity (PSR sort gate)” value is on record as “high polyreactivity”.

As to “QVQLVESGGGLVQAGGSLRLSCDASGRIFAYYTMGWNRQAPGKERELVAAINQSGGSTYYADSVKGRITISRDNAKNTDYLQMNILKPEDTAVYYCAAKRYSMYARRYAYVYWGQVTQVTVSS”, the “polyreactivity (PSR sort gate)” value is reported as “low polyreactivity”.

“QVQLVESGGGLVQAGGSLRLSCDASGRIFHGNAMGWYRQAPGKEREFVAAITYGGGSTYYADSVKGRFTISRDNAKNTVYLQMNSLKPEDTAVYYCNARGARSNGVRGYYSKLNYWGQGTQVTVSS”: the “polyreactivity (PSR sort gate)” value is “high polyreactivity”.

“QVQLVESGGGLVQAGGSLRLSCDASGRIFLDYVMGWYRQAPGKERELVAAISWSGDRTDYADSVKGRFTISRDNAKNTVYLQMNSLKPEDTAVYYCATTWYFAYSDDYKFDYWGQGTQVTVSS”: the “polyreactivity (PSR sort gate)” value is given as “low polyreactivity”.

For the sequence “QVQLVESGGGLVQAGGSLRLSCDASGRIFLHYAMRLYRQAPGTERELVAAISRSGGSTYYADSVKGRFTISRDNAKNTVYLQMNSLKPEDTAVYYCAADGPGDYLTLEWYWFTYYYWGQGTQVTVSS”, the “polyreactivity (PSR sort gate)” value is recorded as “high polyreactivity”.

Turning to “QVQLVESGGGLVQAGGSLRLSCDASGRIFLTNAMAWYRQAPGKERELVAAITSGVSTYYADSVKGRFTISRDNAKNTVYLQMNSLKPEDTAVYYCNADTDRYWPYEYDYWGQGTQVTVSS”, the “polyreactivity (PSR sort gate)” value was “low polyreactivity”.

Regarding “QVQLVESGGGLVQAGGSLRLSCDASGRIFYGYAMGWYRQAPGKERELVAAITYIGGTYYADSVKGRFTISRDNAKNTVYLQMNSMKPEDTAVYYCNALYRYLYRSGDFWGQGSQVTVSS”, the “polyreactivity (PSR sort gate)” value is reported as “low polyreactivity”.

For the sequence “QVQLVESGGGLVQAGGSLRLSCDASGRIFYNYAMGWYRQAPGTERELVAAISGSGGSTYYADSVKGRFTISRDNAKNTVYLQMNSLKPEDTAVYDCSTFGPQYYSRNFDYWGQGTLVTVSS”, the “polyreactivity (PSR sort gate)” value is “low polyreactivity”.

In the case of “QVQLVESGGGLVQAGGSLRLSCDASGRIFYSYDIGWYRQAHGKARELVATISSAGSTYYADSVKGRFTISRDNAKNTVYLQMNSLKPEDTAVYYSARRSGWWTRMDSWGQGTQVTVSS”, the “polyreactivity (PSR sort gate)” value is listed as “high polyreactivity”.

As to “QVQLVESGGGLVQAGGSLRLSCDASGRIFYYYGMGWYRQAPGKERELVAAISNGGRTYYADSVKGRFTISRDNAKNTVYLQMNSLKPEDTAVYYCAALTRGRGGYDYWGQGTQVTVSS”, the “polyreactivity (PSR sort gate)” value is “high polyreactivity”.

With “QVQLVESGGGLVQAGGSLRLSCDASGRILKYNAMGWYRQAPGKERELVAAISGSGGRTYYADSVKGRFTISRDNAKNTVYLQMNSLKPEDTAVYYCAASNASPGGFNYWGQGTQVTVSS”, the “polyreactivity (PSR sort gate)” value was “high polyreactivity”.

Consider “QVQLVESGGGLVQAGGSLRLSCDASGRIYEVYAMGWYRRAPGKERELVAAISADGTITSYADSVKGRFTISRDNAKNNVYLQMNSLKPEDTAVYYCNADPRFRGDYWGQGTQVTVSS”, for which the “polyreactivity (PSR sort gate)” value is “high polyreactivity”.

For the sequence “QVQLVESGGGLVQAGGSLRLSCDASGRPFRRNAMGWYRQAPGKERELVAAITLSGGRTYADSLKGRFTISRDNAKNTVYLQMNSLKPEDTAVYYCAASSPGFSYWYNGYEYWGEGTQVTVSS”, the “polyreactivity (PSR sort gate)” value is recorded as “high polyreactivity”.

Regarding “QVQLVESGGGLVQAGGSLRLSCDASGRTLDVNARGWYRQAPGKERELVAAISYSGGITYYADSVKGRFTISRDNAKNTVYLQMNRLKPEDTAVYYCAVVGGYPSYTVDYWGKGTQVTVSS”, the “polyreactivity (PSR sort gate)” value is given as “low polyreactivity”.

Turning to “QVQLVESGGGLVQAGGSLRLSCDASGSIFATYAMGWYRQAPGKERELVAAIRRSTGTTYYADSVKGRFTISRDNAKNTVYLQMNSLKPEDTAVYYCAALFRPRVHRYDYWGQGTLVTVSS”, the “polyreactivity (PSR sort gate)” value is “low polyreactivity”.

In the case of “QVQLVESGGGLVQAGGSLRLSCDASGSIFEYYAMGWYRPAPGKERELVAAISSGGPTYYADSVKGRFTISRDNAKNTVYLQMNSLKPEDTAVYYCNADLWYPDYDYWGQGTQVTVSS”, the “polyreactivity (PSR sort gate)” value is given as “low polyreactivity”.

Turning to “QVQLVESGGGLVQAGGSLRLSCDASGSIFGVNAMGWYRQAPGKERELVAAINNGGSTKYADSVKGRFTISRDNAKNTVYLQMNSLKPEDTAVYYCAARSWTHYFRFDYWGQGTQVTVSS”, the “polyreactivity (PSR sort gate)” value is “high polyreactivity”.

For the sequence “QVQLVESGGGLVQAGGSLRLSCDASGSIFPYYAMGWYRQAPGKERELVAAITSSDGITYYADSVKGRFTISRDNAKNTVYLQMNSLKPEDTAVYYCAAEVYVADWLTEFYYWGQGTQVTVSS”, the “polyreactivity (PSR sort gate)” value was “high polyreactivity”.

With “QVQLVESGGGLVQAGGSLRLSCDASGSIFSHYAMGWYRQAPGKERELVATITWRGGSNTNYADSVKGRFTISRDNAKNTVYLQMNSLKPEDTAVYYCAADGDGYYYWGQGTQVTVSS”, the “polyreactivity (PSR sort gate)” value is given as “low polyreactivity”.

In the case of “QVQLVESGGGLVQAGGSLRLSCDASGSIFYFNAMGWYRQAPGKERELVASITSGGSTNYADSVKGRFTISRDNAKNTVYLQMNSLKPEDTAVYYCNARKVTYPLYQDEMEYWGQGTQVTVSS”, the “polyreactivity (PSR sort gate)” value was “low polyreactivity”.

As for “QVQLVESGGGLVQAGGSLRLSCDASGSILSFYVMGWYIQAPGKERELVAAINLSSGRTYYADSVKGRFTISRDNAKNTVYLQMNSLKPEDTAVYYCAKQVFGYGIVNNGDYWGQGTQVTVSS”, the “polyreactivity (PSR sort gate)” value is listed as “high polyreactivity”.

For “QVQLVESGGGLVQAGGSLRLSCDASGSISVVNMGWYRQAPGKERELVASNTSSGSTTYADSVKGRFTISRDKAKNTVYLQMNRLKPEDTAVYYCAADVGTDYTYQHPAGAAYDYCGQGTQVTVSS”, the “polyreactivity (PSR sort gate)” value was “low polyreactivity”.

As to “QVQLVESGGGLVQAGGSLRLSCDASGSSFDYYARGWYRQAPGTERELVAAITSTGRTYYADSVKGRFTISRDNAKNTVYLQMNSLKPDDTAVYYCAADQPWGPLFDYWGQGTQVTVSS”, the “polyreactivity (PSR sort gate)” value is on record as “low polyreactivity”.

Regarding “QVQLVESGGGLVQAGGSLRLSCDASGSTFAAYAMGWYRQAPGKERELVAAISRSGGTTYYADSVKGRFTISRDNAKNTVYLQMNSLKPEDTAVYYCAAELSLGNYWYDYWGQGTQVTVSS”, the “polyreactivity (PSR sort gate)” value is “high polyreactivity”.

As to “QVQLVESGGGLVQAGGSLRLSCDASGSTFVTYAMGWYRPAPGKERELVAAINTGGRTKYADSVKGRFTISRDNATNTVYLQMNSLKPEDTAVYYCAARLSTTGVAYGYWGQGTQVTVSS”, the “polyreactivity (PSR sort gate)” value is recorded as “high polyreactivity”.

On to “QVQLVESGGGLVQAGGSLRLSCDASGSTFYPNAMGWYRQAPWKERELVAAITTSGGSTYYADSVKGRFTISRDNAKNTVYLQMNSLKPEDTAVYYCAAEVRDRGLEPYGPIYDYWGQGTQVTVSS”, for which the “polyreactivity (PSR sort gate)” value was “high polyreactivity”.

Take “QVQLVESGGGLVQAGGSLRLSCDPSGRIFNRYAMGWYRQAPGKERELVAAITSGGDTNYADSVKGRFTISRDNAKNTVYLQMNSLKQEDTAVYYCNARSRGRASGYDYWGQGTQVTVSS”: the “polyreactivity (PSR sort gate)” value is listed as “high polyreactivity”.

For “QVQLVESGGGLVQAGGSLRLSCEASGFTFGPYAMGWYRQAPGKEREWVAAIDDSGGNTYYADSVKGRFTISRDNAKNTVYLQRNSLKPEDTAVSYGNAFGPDYYHVYPAEDYWGQGTQVTVSS”, the “polyreactivity (PSR sort gate)” value is reported as “low polyreactivity”.

Turning to “QVQLVESGGGLVQAGGSLRLSCEASGRIFDDNDMGWYRQAPGKERELVAAISSGDSTKYADSVKGRFTITRDNAKNTVYLQMNSLKPEDTAVYYCAAERNHGLVGSESVGRNDYWGQGTQVTVSS”, the “polyreactivity (PSR sort gate)” value was “low polyreactivity”.

Take “QVQLVESGGGLVQAGGSLRLSCGASGFIFEGYSMGRYRQAPAKERELVAANTRGDSTNYADSVKGRFTISRDNAKNTVYLLMNSLKTEDTAVYYCAKTNLIGTDFTSPVQYYYWGQGTQVTVSS”: the “polyreactivity (PSR sort gate)” value was “low polyreactivity”.

For the sequence “QVQLVESGGGLVQAGGSLRLSCGASGIIFLVNAMGWYRQAPGRERELVATITSGGSTYADSVKGRFTISRDNAKNTVYLQMNSLKPEDTAVYYCAAVRRRRNSYGYWGQGTQVTVSS”, the “polyreactivity (PSR sort gate)” value is “high polyreactivity”.

Regarding “QVQLVESGGGLVQAGGSLRLSCGASGRTIDYNGMGWYRQEPGKERELVSVISSSGGSTFYADSVKGRFTISRDNAKNTVYLQMNSLEPEDTAVYYCAALHVGHNYYNSGFYYWGQGTQVTVSS”, the “polyreactivity (PSR sort gate)” value is “low polyreactivity”.

For the sequence “QVQLVESGGGLVQAGGSLRLSCGASGSIFPHYAMGWYRQAPGKEREFVSTISGSTGRTYYADSVKGRFTISRDNAKNTVYLQMNSLKPEDTAVYYCATSVGYYLPPIKYDYWGQGTQVTVSS”, the “polyreactivity (PSR sort gate)” value was “low polyreactivity”.

As for “QVQLVESGGGLVQAGGSLRLSCGASGSIFYGYAMGWYRQAPGKERELVAAITLSGRRTYYADSVKGRFTISRDNAKNTVDSQMNTLKPEDTEVYYCAKHYPYPTEMNYWGQGTQVTVTS”, the “polyreactivity (PSR sort gate)” value is “high polyreactivity”.

On to “QVQLVESGGGLVQAGGSLRLSCGASGSISKINAMGWYRQARGKERELVAAINTGDSTYYADSVKGRFTISRDNAKNTVYLQRNSLKPEDTAVYYCAAEGSPTGYDYWGLGTQVTVSS”, for which the “polyreactivity (PSR sort gate)” value is given as “low polyreactivity”.

For the sequence “QVQLVESGGGLVQAGGSLRLSCGASGSTSVRYAMGWYRQAPGKERELVAAISSSGGSTYYAVSVKGRFTISRDTAKNTVYLQMNSLKPEDTAVYYCNAVPYTTFDWGQGTQVTVSS”, the “polyreactivity (PSR sort gate)” value is listed as “low polyreactivity”.

Take “QVQLVESGGGLVQAGGSLRLSCGAYGRIFLFYDMGWYRQEPGKVRELVATISFRGGSTYYADSVKGRFTISRDNAKNTVYLQMNRLKPEDTAVYYCAKQNKRGYSTSAYYSWGQGTQVTVSS”: the “polyreactivity (PSR sort gate)” value is recorded as “low polyreactivity”.

“QVQLVESGGGLVQAGGSLRLSCGAYGSIFVSHAMAWSRQAPGKASELVAAISQSGGSTYYADSVKGRFTISRDNAKNTVFLQMSSLKPEDTAVYYCATPSRSGFRIYDYWGQGTQVTVSS”: the “polyreactivity (PSR sort gate)” value was “low polyreactivity”.
